Test results published in patent publication US20090297501A1.

Target: monkey Mpl (monkey)

Substance: hTPO (ligand)
- EC50 (read off the curve) (growth of BaF3-monkey Mpl cells, WST-8) [B]: 0.01 nM
